According to patent US7662769B2, “Glycosyltransferase GnT-V having neovascularization action” (Suntory Holdings Limited, priority 2002, dated 2010):
*1 amine or outer side, *2 acyl side, *3 side chain or, on linkers, in order; H or OH if unused. Where a SMILES comes first, the peptide text is derived from it. [ ]: non-standard residue; d: D form. The star is where a group is joined. X1 = CC(N[*:1])C(=O)C(F)(F)C(=O)[*:2]; Boc = CC(C)(C)OC(=O)*

B1: GnT-VΔ233: GnT-V lacking variant, amino acid sequence from Glu234 to Leu741 of human GnT-V with C-terminal polyhistidine tag (protein, UniProt Q09328 234-741, looked up, fragment)
chain: EFRWMRLRIRRMADAWIQAIKSLAEKQNLEKRKRKKVLVHLGLLTKESGFKIAETAFSGGPLGELVQWSDLITSLYLLGHDIRISASLAELKEIMKKVVGNRSGCPTVGDRIVELIYIDIVGLAQFKKTLGPSWVHYQCMLRVLDSFGTEPEFNHANYAQSKGHKTPWGKWNLNPQQFYTMFPHTPDNSFLGFVVEQHLNSSDIHHINEIKRQNQSLVYGKVDSFWKNKKIYLDIIHTYMEVHATVYGSSTKNIPSYVKNHGILSGRDLQFLLRETKLFVGLGFPYEGPAPLEAIANGCAFLNPKFNPPKSSKNTDFFIGKPTLRELTSQHPYAEVFIGRPHVWTVDLNNQEEVEDAVKAILNQKIEPYMPYEFTCEGMLQRINAFIEKQDFCHGQVMWPPLSALQVKLAEPGQSCKQVCQESQLICEPSFFQHLNKDKDMLKYKVTCQSSELAKDILVPSFDPKNKHCVFQGDLLLFSCAGAHPRHQRVCPCRDFIKGQVALCKDCL
modifications: C-terminal His tag
B2: GnT-VΔ436: GnT-V lacking variant, amino acid sequence from Ile437 to Leu741 of human GnT-V with C-terminal polyhistidine tag (protein, UniProt Q09328 437-741, looked up, fragment)
chain: IHHINEIKRQNQSLVYGKVDSFWKNKKIYLDIIHTYMEVHATVYGSSTKNIPSYVKNHGILSGRDLQFLLRETKLFVGLGFPYEGPAPLEAIANGCAFLNPKFNPPKSSKNTDFFIGKPTLRELTSQHPYAEVFIGRPHVWTVDLNNQEEVEDAVKAILNQKIEPYMPYEFTCEGMLQRINAFIEKQDFCHGQVMWPPLSALQVKLAEPGQSCKQVCQESQLICEPSFFQHLNKDKDMLKYKVTCQSSELAKDILVPSFDPKNKHCVFQGDLLLFSCAGAHPRHQRVCPCRDFIKGQVALCKDCL
modifications: C-terminal His tag
B3: GnT-V: secretory type glycosyltransferase N-acetylglucosaminyltransferase V (protein, UniProt Q09328 1-741, looked up)
Alpha-1,6-mannosylglycoprotein …: MALFTPWKLSSQKLGFFLVTFGFIWGMMLLHFTIQQRTQPESSSMLREQILDLSKRYIKALAEENRNVVDGPYAGVMTAYDLKKTLAVLLDNILQRIGKLESKVDNLVVNGTGTNSTNSTTAVPSLVALEKINVADIINGAQEKCVLPPMDGYPHCEGKIKWMKDMWRSDPCYADYGVDGSTCSFFIYLSEVENWCPHLPWRAKNPYEEADHNSLAEIRTDFNILYSMMKKHEEFRWMRLRIRRMADAWIQAIKSLAEKQNLEKRKRKKVLVHLGLLTKESGFKIAETAFSGGPLGELVQWSDLITSLYLLGHDIRISASLAELKEIMKKVVGNRSGCPTVGDRIVELIYIDIVGLAQFKKTLGPSWVHYQCMLRVLDSFGTEPEFNHANYAQSKGHKTPWGKWNLNPQQFYTMFPHTPDNSFLGFVVEQHLNSSDIHHINEIKRQNQSLVYGKVDSFWKNKKIYLDIIHTYMEVHATVYGSSTKNIPSYVKNHGILSGRDLQFLLRETKLFVGLGFPYEGPAPLEAIANGCAFLNPKFNPPKSSKNTDFFIGKPTLRELTSQHPYAEVFIGRPHVWTVDLNNQEEVEDAVKAILNQKIEPYMPYEFTCEGMLQRINAFIEKQDFCHGQVMWPPLSALQVKLAEPGQSCKQVCQESQLICEPSFFQHLNKDKDMLKYKVTCQSSELAKDILVPSFDPKNKHCVFQGDLLLFSCAGAHPRHQRVCPCRDFIKGQVALCKDCL

Columns and labels:
PaCa-2/GnT-V cell = assay: GnT-V activity in culture solution (production of secretory type GnT-V), PaCa-2/GnT-V cell; type: cell-based; settings: 100 μM in DMSO, FIG. 10A
KB/GnT-V cell = assay: GnT-V activity in culture solution (production of secretory type GnT-V), KB/GnT-V cell; type: cell-based; settings: 100 μM in DMSO, FIG. 10B
HUVEC [1] = assay: HUVEC differentiation and growth, incorporation of [3H]-thymidine (DNA synthesis); type: cell-based, human; settings: [3H]-thymidine incorporation; FIG. 2, 3B, 6
Protocol: For in vitro evaluation of induction of neovascularization by a GnT-V transformant, the amount of synthesis of DNA of human umbilical vein […] cells (HUVEC) after stimulation with culture solution of a GnT-V transformant was measured by a method of Soker et al.(Soker, S., et al., J. Biol. Chem. 272, 31582-31588 (1997)). HUVEC was inoculated on a 96-well plate coated with type I collagen at a rate of 2×10^3 cells per well, and 24 hours later, the medium was substituted with an MCDB131 medium (not containing FBS and FGF-2) containing 0.1% […] and a starved condition was maintained for 24 hours. The medium was substituted with culture solution of the WiDr cell transformed with the glycosyltransferase gene described in Example 1, and HUVEC was stimulated for 24 hours. HUVEC was maintained for 8 hours with [^3H]-thymidine (1 μCi/ml), and incorporation of [^3H]-thymidine into HUVEC was analyzed by MicroBeta-Counter (manufactured by Wallac) to measure the amount of synthesis of DNA. The result was shown as the mean value of assay results of 6 wells, and the standard deviation was measured. All experiments were repeated at least three times, and the same results were obtained. As apparent from FIG. 1, DNA synthesis of HUVEC stimulated with the culture solution of WiDr cells transformed with a GnT-V gene increased, however, the same effect was not observed in culture solution of WiDr cells transformed with other glycosyltransferase genes.
Purification of a neovascularization factor present in culture solution of WiDr cells transformed with a GnT-V gene was conducted using various column chromatographies. The neovascularization activity of each fraction was evaluated by differentiation and growth of HUVEC described in Example 3. In heparin affinity chromatography, a fraction of high growth activity of HUVEC was eluted with 0.3 M NaCl. Since known growth factors such as FGF-1, FGF-2, VEGF, placenta-induced growth factor (PIGF) and hepatocyte growth factor (HGF) and the like are eluted with 0.8 to 1.5 M NaCl (Hauser, S. & Weich H. A., Growth Factor 9, 259-268 (1993). Gohda, E., et al., J. Clin. Invest. 81, 414-419 (1998). Marez, A., et al., Biochimie 69, 125-129 (1987). Risau, W., et al., The EMBO J. 7, 959-962 (1988). Rothenthal, R. A., et al., Growth Factor 4, 53-59 (1990)), the above-mentioned nature is utterly different from the natures of these known growth factors. […] A fraction eluted with 0.3 M NaCl in heparin affinity chromatography was subjected to Western blot analysis using an anti-GnT-V antibody to find that the reaction of the anti-GnT-V antibody and the differentiation and growth activity of HUVEC are consistent each other, and the main protein having a differentiation and growth activity of HUVEC present in the fraction is GnT-V itself.

[2] = glycosyltransferase activity of GnT-V deficient variants; type: biochemical; settings: recombinant variants from Sf21 cells
Description: For clarifying which domain of GnT-V is involved in HUVEC growth accelerating activity, a GnT-V lacking variant shown in FIG. 3A was produced. The method of production of a GnT-VΔ188 plasmid is disclosed in a literature of Sasai et al (Sasai, K., et al., Glycobiology (in press)). A transfer plasmid having a GnT-VΔ233 gene was produced by binding a DNA fragment of 1521 base pairs encoding polyhistidine tag at the C-terminal and an amino acid sequence of from Glu234 to Leu741 of human GnT-V, obtained by cutting a GnT-VΔ188 plasmid with EcoRI and EagI, to an EcoRI-EagI site of a transfer vector pAcGP67-A (manufactured by PharMingen). A transfer plasmid having a GnT-VΔ436 gene was produced by binding a DNA fragment of 912 base pairs encoding polyhistidine tag at the C terminal and an amino acid sequence of from Ile437 to Leu741, of human GnT-V, obtained by cutting a GnT-VΔ188 plasmid with EcoRV and EagI, to an EcoRV-EagI site of a transfer vector pAcGP67-A. For production of a recombinant Baculovirus, an insect cell Sf21 was transformed with the transfer plasmid obtained above according to a method known in a literature (Ikeda, Y., et al., J. Biochem. 128, 609-619 (2000)). The recombinant glycosyltransferase derived from the transformed Sf21 cell was purified by Ni^2+-chelating affinity chromatography according to a method disclosed in a literature of Sasaki et al (Sasai, K., et al., Glycobiology (in press)).

HSPG on HUVEC = assay: release of FGF-2 from HSPG on HUVEC (FGF-2 ELISA of supernatant); type: cell-based, human; settings: 4° C., 2 hours; FIG. 5
Description: A basic peptide (KRKRKK peptide) composed of Lys-Arg-Lys-Arg-Lys-Lys (SEQ ID NO: 11) which is an amino acid sequence of from 264 to 269 and a non-basic control peptide (FSGGPL peptide) composed of Phe-Ser-Gly-Gly-Pro-Leu (SEQ ID NO: 12) which is an amino acid sequence of from 291 to 296, of GnT-V, were synthesized, and an influence of these peptides on growth of HUVEC was examined. The peptide was synthesized by a peptide synthesizer A432 (manufactured by Applied Biosystems), and purified by reverse phase HPLC, then, its molecular weight and degree of purification were confirmed by MALDI TOF-MS (Voyager-DE (registered trademark) RP; manufactured by PerSeptive Biosystems). The concentration of FGF-2 was measured by a known method (Barillari, G., et al., American J. Patho. 152, 1161-1166 (1998)). […] After centrifugation at 4° C. and 3000 rpm for 5 minutes, the supernatant was collected, the concentration of FGF-2 in the supernatant was measured in an FGF-2 ELISA system (manufactured by R&D Systems) according to a manual of this system.
As described above, various deficient variants of GnT-V and synthetic peptides were added at 4° C. to culture solution of HUVEC, and the amount of FGF-2 released from HSPG on HUVEC was measured.

chicken microvessels = assay: CAM (chorioallantoic membrane) assay of neovascularization; type: in vivo; settings: ex-vivo, chicken embryo CAM
Protocol: Acceleration of neovascularization by a GnT-V transformant was confirmed by a CAM (chorioallantoic membrane) assay using an embryo of a chicken fertilized egg. The CAM assay was conducted by a method of Yen et al. (Yen, L., et al., Oncogene 19, 3460-3469 (2000)) and a method of Bernardini (Bernardini, G., et al., Blood 96, 4039-4045 (2000)), both being slightly modified. CAM 8 days after fertilization of white Leghorn was used, and 1×10^5 cells thereof were inoculated on a collagen sponge and maintained for 4 hours. A 5 mm silicon ring was placed on CAM on the collagen sponge and maintained for 48 hours.
(§1) Induction of neovascularization by GnT-V was confirmed also by other in vitro neovascularization assays such as a capillary-like tube formation assay (Ashoton, A. W., et al., J. Biol. Chem. 274, 35562-35570 (1999)) and a migration assay (Zeng, H., et al., J. Biol. Chem. 276, 3271-3279 (2001)) using HUVEC.

HUVEC [3] = assay: capillary-like tube formation assay using HUVEC; type: cell-based, human
Description: as §1

HUVEC [4] = assay: migration assay using HUVEC; type: cell-based, human
Description: as §1

Molecule	differentiation and growth of HUVEC (HUVEC growth accelerating activity) (HUVEC [1])	glycosyltransferase activity [2]	release of FGF-2 from HSPG on HUVEC (HSPG on HUVEC)	also measured
CCC(C)C(NC(=O)C(NC(=O)OC(C)(C)C)C(C)C)C(=O)NC(C)C(=O)C(F)(F)C(=O)NC(C(=O)NC(C(=O)OC)C(C)CC)C(C)C (centres unmarked) [DFK167] (Boc-VI[X1]VI-OMe; configuration not given here)	–	–	–	GnT-V activity in culture solution (PaCa-2/GnT-V cell): could not be detected; GnT-V activity in culture solution (KB/GnT-V cell): could not be detected
B1	had an HUVEC growth and differentiation accentuation action	had no glycosyltransferase activity	released FGF-2	–
B2	did not have an HUVEC growth and differentiation accentuation action	had no glycosyltransferase activity	did not affect release of FGF-2	induction of neovascularization in CAM assay (chicken microvessels): did not have a neovascularization activity
B3	–	–	–	induction of neovascularization, capillary-like tube formation (HUVEC [3]): confirmed; induction of neovascularization, migration (HUVEC [4]): confirmed
